# Test results as given in patent US20210363247A1, “Novel Treatments of Glaucoma” (The Regents of the University of California, priority 2019, published 2021).
# Entries after “also recorded” stand apart in the source; their conditions may differ.
# Experiments:
# mouse = mouse model, inhibitor delivered locally by eye drops, IOP; assay type: in vivo
# Excerpt: (§1) These protocols employ two different antibodies: anti-human WNTSA antibody produced in rabbit purified immunoglobulin, buffered aqueous solution (Sigma-Aldrich SAB1411396), and an anti-human WNTSA monoclonal antibody produced in mouse clone 6F2, ascites fluid (Sigma-Aldrich SAB5300183), although other Wnt5a antibodies can be used, e.g. Hanaki et al., Mol Cancer Ther 11(2) February 2012; He et al. Oncogene. 2005, 24 (18): 3054-3058.
# (§2) These protocols employ a t-butyloxycarbonyl-modified Wnt5a-derived hexapeptide (Box5) that functions as a potent antagonist of Wnt5a (Jenei, et la., PNAS USA, 106 (46), 19473-8), and 6,7-dihydro -10alpha-hydroxy radicicol, a potent WNT-5A expression inhibitor with relatively low toxicity and excellent stability (Shinonaga et al. Bioorg Med Chem. 2009 Jul. 1; 17(13):4622-35).
# (§3) These protocols employed OMP18R5 (a humanized monoclonal antibody that binds FZD5), Abcam ab52565 (a monoclonal antibody that binds FZD2), and cirmtuzumab (a humanized IgG1 anti-ROR1 monoclonal antibody), though an anti-human FZD5, FZD2 siRNA and ROR1 polyclonal and monoclonal antibodies, are commercially available from multiple sources, e.g. ThermoFisher Scientific, Abcam, SigmaAldrich, etc.); see also U.S. Pat. No. 9,573,998 for antibodies against human FZD5.
# rabbit = rabbit model, inhibitor delivered locally by eye drops, IOP; assay type: in vivo
# Excerpt: as §1, §2, §3
# [1] = tested on: human Schlemm's canal cells; experiment: tube formation of human Schlemm's canal cells; assay type: cell-based; details: in vitro; vs scrambled siRNA, isotype control or vehicle control of ethanol (0.07%); *P<0.05
# Excerpt: FIGS. 1A-G. (A-C) Real-time quantitative PCR data showing the expression levels of FZD5, ROR1 and FZD2 in human Schlemm's canal cells are regulated by sheer stress (A), Wnt5a intervention by small interference RNAs (siRNAs) (B), or Wnt5a stimulation (C). (D and E) Summarized data showing that tube formation of human Schlemm's canal cells was inhibited by FZD5 siRNA (D) or ROR1 siRNA (E), respectively. Scrambled siRNA was used as negative control. *P<0.05. (F and G) Representative images showing that tube formation of human Schlemm's canal cells are regulated by the intervention of FZD5 (F) or ROR1 (G) via siRNAs. *P<0.05. […]
# In exemplary models vivo data were obtained using well-established mouse model of glaucoma with laser-induced occlusion of episcleral veins (Zhang L, et al. Establishment and Characterization of an Acute Model of Ocular Hypertension by Laser-Induced Occlusion of Episcleral Veins. Invest Ophthalmol Vis Sci. 2017 Aug. 1; 58(10):3879-3886). […] Central corneal thickness and RNFL were measured on Day 3 or Day 7 by in vivo OCT, respectively. […]
# [2] = tested on: human Schlemm's canal cells; experiment: real-time quantitative PCR of expression levels in human Schlemm's canal cells; assay type: cell-based
# Excerpt: FIGS. 1A-G. (A-C) Real-time quantitative PCR data showing the expression levels of FZD5, ROR1 and FZD2 in human Schlemm's canal cells are regulated by sheer stress (A), Wnt5a intervention by small interference RNAs (siRNAs) (B), or Wnt5a stimulation (C). (D and E) Summarized data showing that tube formation of human Schlemm's canal cells was inhibited by FZD5 siRNA (D) or ROR1 siRNA (E), respectively. Scrambled siRNA was used as negative control. *P<0.05. (F and G) Representative images showing that tube formation of human Schlemm's canal cells are regulated by the intervention of FZD5 (F) or ROR1 (G) via siRNAs. *P<0.05.
# (§4) FIGS. 2A-C. (A-C, top panels) Real-time quantitative PCR data showing the expression levels of PLCB1, PPP3R1 and NFATC3 in human Schlemm's canal cells are regulated by sheer stress (A), Wnt5a intervention via siRNAs (B), or Wnt5a stimulation (C). (A-C, lower panels) Representative images and summarized data of Fluo-4 staining showing intracellular calcium signal is regulated by sheer stress (A), Wnt5a intervention via siRNAs (B), or Wnt5a stimulation (C). Green: Fluo-4, blue: DAPI nuclear staining *P<0.05.
# FIGS. 3A-B. Real-time quantitative PCR data showing the expression of CAMK2D in human Schlemm's canal cells is regulated by sheer stress (A), or wnt5a stimulation (B), respectively. *P<0.05.
# In exemplary models vivo data were obtained using well-established mouse model of glaucoma with laser-induced occlusion of episcleral veins (Zhang L, et al. Establishment and Characterization of an Acute Model of Ocular Hypertension by Laser-Induced Occlusion of Episcleral Veins. Invest Ophthalmol Vis Sci. 2017 Aug. 1; 58(10):3879-3886). Intraocular hypertension is introduced in the right eyes (OD) of the mice with the left eyes (OS) as controls. […] Central corneal thickness and RNFL were measured on Day 3 or Day 7 by in vivo OCT, respectively. […]
# [3] = tested on: human Schlemm's canal cells; experiment: Fluo-4 staining of intracellular calcium signal; assay type: cell-based
# Excerpt: as §4
# In exemplary models vivo data were obtained using well-established mouse model of glaucoma with laser-induced occlusion of episcleral veins (Zhang L, et al. Establishment and Characterization of an Acute Model of Ocular Hypertension by Laser-Induced Occlusion of Episcleral Veins. Invest Ophthalmol Vis Sci. 2017 Aug. 1; 58(10):3879-3886). Intraocular hypertension is introduced in the right eyes (OD) of the mice with the left eyes (OS) as controls. In these examples, the inhibitors or their controls were delivered daily to the right eyes via local administration of subconjunctival injection, starting from Day 1 after the induction of intraocular hypertension in the right eyes of the mice. Left eyes were used as controls. Central corneal thickness and RNFL were measured on Day 3 or Day 7 by in vivo OCT, respectively. All in vitro data were collected from human Schlemm's cells in culture.
molecule,measurement,setting,value
"6,7-dihydro -10alpha-hydroxy radicicol",therapy for pathogenic IOP,mouse,effective therapies
same,therapy for pathogenic IOP,rabbit,effective therapies
"O=C(OC[C@H]1O[C@@H](OC(=O)c2cc(O)c(O)c(O)c2)[C@H](OC(=O)c2cc(O)c(O)c(O)c2)[C@@H](OC(=O)c2cc(O)c(O)c(O)c2)[C@@H]1OC(=O)c1cc(O)c(O)c(O)c1)c1cc(O)c(O)c(O)c1 [DB03208, Beta-1,2,3,4,6-Penta-O-Galloyl-D-Glucopyranose]",tube formation of human Schlemm's canal cells,[1],inhibited
"Wnt5a: Wnt5a used to stimulate human SC cells (protein, UniProt P41221 62-380, looked up) Protein Wnt-5a: IIGAQPLCSQLAGLSQGQKKLCHLYQDHMQYIGEGAKTGIKECQYQFRHRRWNCSTVDNTSVFGRVMQIGSRETAFTYAVSAAGVVNAMSRACREGELSTCGCSRAARPKDLPRDWLWGGCGDNIDYGYRFAKEFVDARERERIHAKGSYESARILMNLHNNEAGRRTVYNLADVACKCHGVSGSCSLKTCWLQLADFRKVGDALKEKYDSAAAMRLNSRGKLVQVNSRFNSPTTQDLVYIDPSPDYCVRNESTGSLGTQGRLCNKTSEGMDGCELMCCGRGYDQFKTVQTERCHCKFHWCCYVKCKKCTEIVDQFVCK","expression levels of FZD5, ROR1 and FZD2",[2],regulated; also recorded: increased
same,"expression levels of PLCB1, PPP3R1 and NFATC3",[2],regulated
same,expression of CAMK2D,[2],regulated
same,intracellular calcium signal,[3],regulated
